Measurements: patent publication US20250092146A1, “ANTI-CCR8 ANTIBODIES, CONJUGATES, AND USES THEREOF” (Abilita Bio, Inc., priority 2023, published 2025)

What was measured:
hCCR8 = biological target: T1, hCCR8 (Homo sapiens, UniProt P51685); test: Flow cytometry binding of VHH-Fc fusion antibodies to hCCR8 on stably transfected HEK293 cells; settings: as Fc fusion antibodies
T1 construct: expressed in transfected cells
Method: VHH-Fc fusion antibodies were evaluated for their ability to bind to hCCR8 on stably transfected HEK293 cells by means of flow cytometry. Cells were incubated with different concentrations of the bivalent VHH-Fc fusions for 60 minutes at 4° C., followed by two washes with FACS buffer, followed by 30 minutes incubation at 4° C. with the Zenon R-Phycoerythrin Anti-human IgG (ThermoFisher Scientific, #Z-25455), and two additional washing steps. Data were plotted and fit using GraphPad Prism software. EC50 and Bmax values individual antibodies were calculated from the resulting dose-response curves. Bivalent VHH-Fc fusions (Seq ID NOs: 31, 33, and 87-103) of 19 different VHH domains (SEQ ID NOs: 27, 28, and 70-86) were tested for cell binding and results are shown in Table 7. […]
VHH-Fc fusion DNA constructs were then generated comprising encoding humanized VHH sequences (SEQ ID NOs: 106-111) fused in frame to the human IgG1 (SEQ ID NO: 34) directly to the short hinge sequence in the pFuse expression vector, and were expressed, purified and analyzed for binding to HEK293 cells expressing human CCR8 as in Example 5. Binding curves for VHH-Fc antibodies comprised of parental VHH-1 and the humanized VHH derivatives VHH-1.2-Fc and VHH-1.3-Fc are shown in FIG. 9A. Binding curves for VHH-Fc antibodies comprised of parental VHH-2 and the humanized VHH derivatives VHH-2-Fc, VHH-2.2-Fc and VHH-2.3-Fc, are shown in FIG. 9B. Cell binding EC50 values, normalized Bmax (relative to respective parental clone) data and humanizing mutations are shown in Table 10 below.
Approaches such as in vitro affinity maturation and rational mutagenesis can be performed to regain binding affinity and/or stability lost through humanization. In vitro affinity maturation generally involves building and amino acid substitution library where amino acid positions are varied across the CDRs and/or framework at a defined set of positions using sets of amino acids chosen to introduce new chemical diversity. The paratope residues within the CDR regions are of course key to antigen binding and care must be taken not to disrupt important structures while attempting to evolve improve antibody behavior. One approach to identify positions that are important to the maintenance of binding properties is to perform paratope mapping using single scanning alanine substitutions across antibody CDR regions. In this approach, residues that are critical to the maintenance of antibody binding to the antigen can be identified and at the same time permissive sites can be identified where it may be possible to make substitutions of other amino acids desirable for subsequent affinity maturation library construction. Site directed mutagenesis was used to make single alanine substitutions at each residue in the CDRs of VHH-1 (SEQ ID NO: 27) and VHH-2 (SEQ ID NO: 28). Changes in VHH-1 CDR amino acids to alanine are indicated in Table 11 (SEQ ID NOs: 112-137) and for VHH-2 CDRs (SEQ ID NO: 138-162) in Table 12. Mutation positions and residue changes to alanine with respect to the in the parental VHH sequences are referenced by their IMGT position. VHH domains containing the indicated modified CDR-1, CDR-2 or CDR-3 domains were used to construct Fc fusions by direct grafting to the short hinge of the human Fc domain (SEQ ID NO: 34). VHH-Fc constructs were expressed, purified and analyzed for binding to HEK293 cells expressing hCCR8 and the results are reported in Table 11 and Table 12. EC50 values are reported for each Fc fusion antibody containing a modified CDR, along with its respective Bmax value normalized to the to the matched wild type VHH-1-Fc or VHH-2-Fc fusion antibody.

[1] = biological target: T2, HuT-78 cells that naturally express human CCR8 (Homo sapiens, UniProt P51685); test: Flow cytometry binding of yeast-display optimized VHH-Fc antibodies to HuT-78 cells; settings: Table 13; for EC50: clones tested as VHH-Fc fusions (human IgG1 Fc), HuT-78 cells; for Normalized Bmax (%): normalized to VHH-1 or VHH-2 depending on clone family
T2 construct: HuT-78 cells that naturally express human CCR8 were used as target cells; endogenous in cells; host or cells: HuT-78
T2 sequence (P51685 whole entry, the tested form may be a part): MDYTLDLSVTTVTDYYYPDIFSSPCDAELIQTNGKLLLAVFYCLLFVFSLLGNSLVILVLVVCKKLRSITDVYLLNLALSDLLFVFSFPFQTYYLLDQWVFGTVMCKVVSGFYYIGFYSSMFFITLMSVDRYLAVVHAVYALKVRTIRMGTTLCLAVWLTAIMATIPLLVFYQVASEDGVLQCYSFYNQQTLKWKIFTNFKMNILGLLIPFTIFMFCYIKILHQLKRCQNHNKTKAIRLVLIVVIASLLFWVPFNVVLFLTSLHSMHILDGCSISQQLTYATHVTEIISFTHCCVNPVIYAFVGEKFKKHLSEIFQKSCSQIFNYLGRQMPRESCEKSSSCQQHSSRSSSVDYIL
From the text: Top VHH sequences were chosen from the FACS sorted populations based on an analysis of improved binding performance relative to the parental sequences and evidence of sequence enrichment by NGS. Candidate VHH were then cloned as VHH-Fc fusions to the short hinge of the IgG1 Fc domain (SEQ ID NO: 34), expressed in HEK293 cells as described earlier and purified for binding evaluation. Bmax values are shown as normalized to VHH-1 or VHH-2 depending on the clone family. […] Mutations are referenced by position according to the IMGT definition.

T1 sequence (P51685 whole entry, the tested form may be a part): as above

Molecule	binding to hCCR8 expressed on HEK293 cells (in words) (hCCR8)	EC50 [1] [nM]	Normalized Bmax (%) [1] [%]
VHH-1.2: humanized VHH-1, version 2, SEQ ID NO: 107 (protein) VHH: EVQLVESGGGLVQPGGSLRLSCAASGSTSSIRRIGWYRQAPGKGLEWVARFSSGGGTNYADSVKGRFTISGDNSKNTMYLQMNSLRAEDTAVYYCSARRLLGTSRVDYWGQGTTVTVSS	maintained their hCCR8 binding properties		
VHH-1.3: humanized VHH-1, version 3, SEQ ID NO: 108; Table 13 tested as Fc fusion (protein) VHH: EVQLVESGGGLVQPGGSLRLSCAASGSTSSIRRIGWYRQAPGKGRELVARFSSGGGTNYADSVKGRFTISGDNSKNTMYLQMNSLRAEDTAVYYCSARRLLGTSRVDYWGQGTTVTVSS	maintained their hCCR8 binding properties	5.46	88.6
VHH-2.2: humanized VHH-2, version 2, SEQ ID NO: 110 (protein) VHH: EVQLVESGGGLVQPGGSLRLSCAVSGSTSTINRFAWYRQAPGKGLEWVAATSSRTSPNYADSVKGRFTFSRDNSKNTVYLQMNSLRAEDTAVYYCQARMAMGSSQVVYWGQGTTVTVSS	maintained their hCCR8 binding properties		
VHH-1.3-14: VHH-1.3 variant G64S, L110V, SEQ ID NO: 199; tested as Fc fusion (protein) VHH: EVQLVESGGGLVQPGGSLRLSCAASGSTSSIRRIGWYRQAPGKGRELVARFSSGGSINYADSVKGRFTISGDNSKNTMYLQMNSLRAEDTAVYYCSARRLVGTSRVDYWGQGTQVTVSS		0.9	131.9
VHH-1.3-15: VHH-1.3 variant S58G, SEQ ID NO: 200; tested as Fc fusion (protein) VHH: EVQLVESGGGLVQPGGSLRLSCAASGSTSSIRRIGWYRQAPGKGRELVARFSGGGGTNYADSVKGRFTISGDNSKNTMYLQMNSLRAEDTAVYYCSARRLLGTSRVDYWGQGTTVTVSS		2.82	107.1
VHH-1.3-16: VHH-1.3 variant S35T, R37V, G64S, R108I, SEQ ID NO: 201; tested as Fc fusion (protein) VHH: EVQLVESGGGLVQPGGSLRLSCAASGSTSTIVRIGWYRQAPGKGRELVARFSSGGSTNYADSVKGRFTISGDNSKNTMYLQMNSLRAEDTAVYYCSARILLGTSRVDYWGQGTTVTVSS		3.1	79.0
VHH-1.3-17: VHH-1.3 variant R37V, R55H, R108I, N83K, SEQ ID NO: 202; tested as Fc fusion (protein) VHH: EVQLVESGGGLVQPGGSLRLSCAVSGSTSSIVRIGWYRQAPGKGRELVAHFSSGGGTNYADSVKGRFTISGDKSKNTMYLQMNSLRAEDTAVYYCSARILLGTSRVDYWGQGTTVTVSS		0.67	72.8
VHH-1.3-18: VHH-1.3 variant A25V, R38G, S57I, N83K, SEQ ID NO: 203; tested as Fc fusion (protein) VHH: EVQLVESGGGLVQPGGSLRLSCAVSGSTSSIRGIGWYRQAPGKGRELVARFISGGGTNYADSVKGRFTISGDKSKNTMYLQMNSLRAEDTAVYYCSARRLLGTSRVDYWGQGTTVTVSS		0.31	113.4
VHH-1.3-19: VHH-1.3 variant A25V, R38G, R55H, N83K, SEQ ID NO: 204; tested as Fc fusion (protein) VHH: EVQLVESGGGLVQPGGSLRLSCAVSGSTSSIRGIGWYRQAPGKGRELVAHFSSGGGTNYADSVKGRFTISGDKSKNTMYLQMNSLRAEDTAVYYCSARRLLGTSRVDYWGQGTQVTVSS		0.45	130.0
VHH-1.3-20: VHH-1.3 variant A25V, R38G, S57I, R108I, SEQ ID NO: 205; tested as Fc fusion (protein) VHH: EVQLVESGGGLVQPGGSLRLSCAVSGSTSSIRGIGWYRQAPGKGRELVARFISGGGTNYADSVKGRFTISGDNSKNTMYLQMNSLRAEDTAVYYCSARILLGTSRVDYWGQGTQVTVSS		0.49	107.6
VHH-1.3-21: VHH-1.3 variant A25V, R38G, S57I, G81A, SEQ ID NO: 206; tested as Fc fusion (protein) VHH: EVQLVESGGGLVQPGGSLRLSCAVSGSTSSIRGIGWYRQAPGKGRELVARFISGGGTNYADSVKGRFTISADNSKNTMYLQMNSLRAEDTAVYYCSARRLLGTSRVDYWGQGTQVTVSS		1.62	133.9
VHH-2.3-1: VHH-2.3 variant D81G, SEQ ID NO: 207; tested as Fc fusion (protein) VHH: EVQLVESGGGLVQPGGSLRLSCAVSGSTSTINRFAWYRQAPGKGRELVAATSSRTSPNYADSVKGRFTFSRGNSKNTVYLQMNSLRAEDTAVYYCQARMAMGSSQVVYWGQGTTVTVSS		0.23	118.3
VHH-2.3-2: VHH-2.3 variant D81G, M108K, SEQ ID NO: 208; tested as Fc fusion (protein) VHH: EVQLVESGGGLVQPGGSLRLSCAVSGSTSTINRFAWYRQAPGKGRELVAATSSRTSPNYADSVKGRFTFSRGNSKNTVYLQMNSLRAEDTAVYYCQARKAMGSSQVVYWGQGTTVTVSS		0.12	131.9
VHH-2.3-3: VHH-2.3 variant P65L, SEQ ID NO: 209; tested as Fc fusion (protein) VHH: EVQLVESGGGLVQPGGSLRLSCAVSGSTSTINRFAWYRQAPGKGRELVAATSSRTSLNYADSVKGRFTFSRDNSKNTVYLQMNSLRAEDTAVYYCQARMAMGSSQVVYWGQGTTVTVSS		1.7	83.3
VHH-1.3-1: VHH-1.3 variant G64S, SEQ ID NO: 186; tested as Fc fusion (protein) VHH: EVQLVESGGGLVQPGGSLRLSCAASGSTSSIRRIGWYRQAPGKGRELVARFSSGGSTNYADSVKGRFTISGDNSKNTMYLQMNSLRAEDTAVYYCSARRLLGTSRVDYWGQGTTVTVSS		2.03	85.3
VHH-1.3-2: VHH-1.3 variant L110V, SEQ ID NO: 187; tested as Fc fusion (protein) VHH: EVQLVESGGGLVQPGGSLRLSCAASGSTSSIRRIGWYRQAPGKGRELVARFSSGGGTNYADSVKGRFTISGDNSKNTMYLQMNSLRAEDTAVYYCSARRLVGTSRVDYWGQGTTVTVSS		2.21	115.7
